Source: PMC6868718, “Multiple transcription factors co-regulate the Mycobacterium tuberculosis adaptation response to vitamin C” (BMC Genomics, 2019)

T1: Rv0348 (MosR) (Mycobacterium tuberculosis H37Rv) (UniProt O06299)
T1 sequence: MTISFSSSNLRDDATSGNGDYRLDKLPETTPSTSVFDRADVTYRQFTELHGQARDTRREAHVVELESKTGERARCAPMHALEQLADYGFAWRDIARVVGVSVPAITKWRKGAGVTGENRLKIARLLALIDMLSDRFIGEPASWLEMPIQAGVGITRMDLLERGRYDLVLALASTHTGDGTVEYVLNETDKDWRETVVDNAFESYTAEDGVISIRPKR


What was measured:
[1] = biological target: T1, Rv0348 (MosR) (Mycobacterium tuberculosis H37Rv); test: EMSA
[2] = biological target: T2, Phosphorylated DevR (DevR~P) (Mycobacterium tuberculosis, UniProt P9WMF9 1-217, phosphorylated using 50 mM acetyl phosphate (residue not stated)); test: native gel or EMSA; details: both partners purified
T2 construct: DevR, two-component response regulator of Mycobacterium tuberculosis (devR of the Rv3134c-devR-devS operon), phosphorylated in vitro with acetyl phosphate; also called His6-DevR phosphorylated
T2 sequence (P9WMF9 whole entry): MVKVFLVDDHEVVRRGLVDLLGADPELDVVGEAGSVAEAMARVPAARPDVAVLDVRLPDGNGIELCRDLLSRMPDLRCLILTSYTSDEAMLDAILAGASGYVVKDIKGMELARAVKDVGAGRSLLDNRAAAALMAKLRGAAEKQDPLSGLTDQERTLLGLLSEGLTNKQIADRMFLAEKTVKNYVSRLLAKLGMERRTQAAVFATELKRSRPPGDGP

| Molecule | binding [1] | binding result [2] |
| --- | --- | --- |
| TTACTGGCGGGGACCGCTATCTCCCAGGGGCGTTGGTCCCCACCTGAGGGCCGTTAGTCCTTATCGACCGATGACAGACGCAACCCGTCAGGGCGAGAATGAATCTCACCTATCGCACGGGTGGCTCGTCCAGGTCCACAACCATCGCCCAGCTTTTCACAGCAAAGTCCCAGAAATGGCTTACAGTTGCCGACAGCTGCCGAACCAGCGGCCGTC (double strand) [Rv3134c promoter fragment (devR operon promoter)] | no binding |  |
| Rv0348-His6 (natural protein, also called mosR; not shown: His6, C-terminal, kept) MTISFSSSNLRDDATSGNGDYRLDKLPETTPSTSVFDRADVTYRQFTELHGQARDTRREAHVVELESKTGERARCAPMHALEQLADYGFAWRDIARVVGVSVPAITKWRKGAGVTGENRLKIARLLALIDMLSDRFIGEPASWLEMPIQAGVGITRMDLLERGRYDLVLALASTHTGDGTVEYVLNETDKDWRETVVDNAFESYTAEDGVISIRPKR |  | binds |
